Laboratory results reported in US20220031813A1, “INHIBITOR OF EXTRACELLULAR TRAP FORMATION IN LEUKOCYTES” (priority 2013, published 2022).

Legend:
[1] = test system: histone-induced thrombus model mice; experiment: Bleeding in lung tissues of histone-induced thrombus model mice; type: in vivo, mouse; details: 20 mg/kg i.v. 30 minutes before histone 80 mg/kg, n=4, ten minutes after histone
Description: As a pre-treatment, 20 mg/kg of bovine lactoferrin was intravenously administered to the tails of 11 week old male C57BL/6 mice, and 30 minute later, 80 mg/kg of histone (sigma, H9250) dissolved in physiological saline and left at 37° C. was intravenously administered to tails of the mice to create DIC model mice (n=4) (Tobias A., et al., Blood, 29 Sep. 2011; vol. 118: no. 13, pp. 3708-3714). For control group mice with no therapy (n=4), 100 μl of physiological saline not containing bovine lactoferrin was intravenously administered to the tails 30 minutes before histone was intravenously administered. For healthy control group mice (n=4), physiological saline, instead of the bovine lactoferrin used for the pre-treatment and also instead of histone, was administered. Ten minutes after the administration of histone (second administration of physiological saline), the mice were put to euthanasia. Lung tissues were extracted and immobilized by use of 4% paraformaldehyde.

[2] = test system: histone-induced thrombus (DIC) model mice; experiment: Survival rate/lifetime extension of histone-induced thrombus (DIC) model mice; type: in vivo, mouse; details: 20 mg/kg i.v. 30 minutes before histone 80 mg/kg, n=8; control: one alive; p=0.0005
Description: 80 mg/kg of histone (sigma, H9250) dissolved in physiological saline and left at 37° C. was intravenously administered to the tails of 11 week old male C57BL/6 mice to create DIC model mice (Tobias A. et al., blood, 29 Sep. 2011, vol. 118, no. 13, pp. 3708-3714). As a pre-treatment, 20 mg/kg of bovine lactoferrin was intravenously administered to the tails of the mice, and 30 minute later, histone was intravenously administered to the tails of the mice (n=8). These mice were labeled as a group of mice provided with therapy with lactoferrin. To the tails of different mice (n=8), 100 μl of physiological saline not containing bovine lactoferrin was intravenously administered, and 30 minutes later, histone was intravenously administered. These mice were labeled as a control group of mice provided with no therapy. The survival rate/lifetime extension after the administration of histone was evaluated by use of the Kaplan-Meier method. The control group of mice provided with no therapy gradually started to die about 20 minutes after the administration of histone. Two days later, two mice were alive, and 4 days later, one mouse was alive. By contrast, the 8 mice in the group provided with therapy with bovine lactoferrin were all alive even 4 days later. […]

human neutrophils [3] = experiment: Rate of NETs formation in PMA-stimulated neutrophils after pre-treatment, counted by confocal microscopy; type: cell-based
[4] = bovine proteins; cited from earlier work
[5] = test system: histone-induced thrombus model mice; experiment: Bleeding time duration in histone-induced thrombus model mice; type: in vivo, mouse; details: 20 mg/kg i.v. 30 minutes before histone 60 mg/kg, n=5, vs no therapy; p<0.0001
Description: As a pre-treatment, 20 mg/kg of bovine lactoferrin was intravenously administered to the tails of 11 week old male C57BL/6 mice, and 30 minute later, 60 mg/kg of histone (sigma, H9250) dissolved in physiological saline and left at 37° C. was intravenously administered to the tails of the mice to check the effect of hemostasis on the DIC model mice (n=5) (Tobias A, et al., Blood, 2011; 118: pp. 3708-3714) (75% of the amount of histone used for improving the survival rate/lifetime extension was adopted). For control group mice without therapy (n=5), 100 μl of physiological saline not containing bovine lactoferrin was intravenously administered to the tails 30 minutes before the administration of histone. For healthy control mice (n=5), physiological saline, instead of the bovine lactoferrin used for the pre-treatment and also instead of histone, was administered. Twenty minutes after the administration of histone, the vein of the tail of each mouse was cut at a position 3 mm from the end, and immersed in a 37° C. physiological saline. At every 30 seconds, the blood was wiped off with a filter paper, and the bleeding time duration was measured (in the case where the bleeding time duration was 15 minutes or longer, the bleeding time duration was recorded as 15 minutes and a hemostasis treatment was performed) (Fuchs T A, et al., Blood, 2011; 118:3708-3714).

human neutrophils [6] = experiment: Specificity experiment: inhibition of NETs formation by DNA concentration in the culture supernatant; type: cell-based; details: n=3, p<0.01, FIG. 10
Description: About 1 hour after the isolation of the neutrophils described in “1. Method of isolating human neutrophils” in Example 2, the neutrophils were pre-treated. On an 8-well microslide (Cat. No. ib 80826 Ibidi (registered trademark)), the neutrophils were seeded in 400 μl of culture DMEM+2% human serum Alb (serum human albumin; Product No. A9080 Sigma+4 mM L-glutamine) at a rate of about 1.0×10^5 cells/well, and stimulated with PMA (final concentration: 25 nM, stock: 10 mM in DMSO, Sigma Prod No. P8139). At thirty minutes before the stimulation, and at every one hour or every two hours after the stimulation, 200 μg/ml of human lactoferrin (stock: 100 mg/ml, 200 μl; Cat. No. SIGL6793, SIGMA) was added to perform inhibition [FIG. 2].
The culture supernatant was recovered and centrifuged at 200×g for 10 minutes, and the supernatant was transferred to a new microscopic centrifuge tube. The DNA amount was measured by use of Picogreen dsDNA assay reagent (P11496 Invitrogen) in accordance with an accompanying protocol. Treatment with human lactoferrin at one hour and two hours after the stimulation was a similar effect to the prior pre-treatment, the DNA concentration in the culture supernatant decreased, resulting in suppression of the release of the DNAs by the NETs [FIG. 2]. […]

B1: bovine lactoferrin: bovine lactoferrin (Product No. 123-04124 WAKO); in Example 9 eluted from crude bovine milk protein; cow lactoferrin SEQ ID NO 2 (protein, listed as Bos taurus)
chain: MKLFVPALLSLGALGLCLAAPRKNVRWCTISQPEWFKCRRWQWRMKKLGAPSITCVRRAFALECIRAIAEKKADAVTLDGGMVFEAGRDPYKLRPVAAEIYGTKESPQTHYYAVAVVKKGSNFQLDQLQGRKSCHTGLGRSAGWIIPMGILRPYLSWTESLEPLQGAVAKFFSASCVPCIDRQAYPNLCQLCKGEGENQCACSSREPYFGYSGAFKCLQDGAGDVAFVKETTVFENLPEKADRDQYELLCLNNSRAPVDAFKECHLAQVPSHAVVARSVDGKEDLIWKLLSKAQEKFGKNKSRSFQLFGSPPGQRDLLFKDSALGFLRIPSKVDSALYLGSRYLTTLKNLRETAEEVKARYTRVVWCAVGPEEQKKCQQWSQQSGQNVTCATASTTDDCIVLVLKGEADALNLDGGYIYTAGKCGLVPVLAENRKSSKHSSLDCVLRPTEGYLAVAVVKKANEGLTWNSLKDKKSCHTAVDRTAGWNIPMGLIVNQTGSCAFDEFFSQSCAPGADPKSRLCALCAGDDQGLDKCVPNSKEKYYGYTGAFRCLAEDVGDVAFVKNDTVWENTNGESTADWAKNLNREDFRLLCLDGTRKPVTEAQSCHLAVAPNHAVVSRSDRAAHVKQVLLHQQALFGKNGKNCPDKFCLFKSETKNLLFNDNTECLAKLGGRPTYEEYLGTEYVTAIANLKKCSTSPLLEACAFLTR
bleeding in lung tissues [1]: not observed to bleed almost at all | mice alive 4 days after histone [2]: 8 mice | rate of the NETs formed at plateau, compared with stimulation merely with PMA (human neutrophils [3]; pre-treatment 2 μg/ml for 30 minutes, then PMA 25 nM): half | rate of the NETs formed at plateau, compared with stimulation merely with PMA (human neutrophils [3]; pre-treatment 20 μg/ml for 30 minutes, then PMA 25 nM): half | formation of the NETs at plateau, compared with stimulation merely with PMA (human neutrophils [3]; pre-treatment 200 μg/ml for 30 minutes, then PMA 25 nM): ¼ | inhibitory effect on the formation of the NETs (human neutrophils [3]; pre-treatment with 2, 20 or 200 μg/ml, FIG. 1-A, 1-B): concentration-dependent manner | Isoelectric point [4]: 8.2-8.9 | bleeding time duration [5]: significantly shorter | inhibition of the formation of the NETs (human neutrophils [6]): inhibited
